Laboratory results from article doi:10.64898/2025.12.23.696152 (bioRxiv, 2025).
Several values for one entry are separate records, joined by “and”; a condition that tells them apart may be missing. Equal values may be shown once. Blank lines part the entries; values can stand above or below the molecule they belong to.

How the values were obtained:
[1] = biological target: KIF5C(Δtail)-mScarlet-Strep-tag II (human) (UniProt O60282); experiment: mass photometry
[2] = biological target: KIF5C(ΔtailΔelbow)-mScarlet-Strep-tag II (human) (UniProt O60282); experiment: mass photometry
[3] = biological target: Taxol-stabilized microtubules polymerised from pig brain tubulin (pig) (UniProt P02550); experiment: TIRF single-molecule motility assay
mass photometry = biological target: the molecule itself; experiment: mass photometry

percent of particles as dimer [1]: 93% | stoichiometry N [1]: 2
Molecule: KIF5C(Δtail)-mScarlet-Strep-tag II (from UniProt O60282 1-914) (domain or fragment)

percent of particles as dimer [2]: 91% | stoichiometry N [2]: 2
Molecule: KIF5C(ΔtailΔelbow)-mScarlet-Strep-tag II (from UniProt O60282 1-914) (domain or fragment)

landing rate (molecules/μm/s) [3]: 0.011 and 0.0047
B1: KIF5C-mScarlet-Strep-tag II (human KIF5C, full length) (natural protein)
chain: MADPAECSIKVMCRFRPLNEAEILRGDKFIPKFKGDETVVIGQGKPYVFDRVLPPNTTQEQVYNACAKQIVKDVLEGYNGTIFAYGQTSSGKTHTMEGKLHDPQLMGIIPRIAHDIFDHIYSMDENLEFHIKVSYFEIYLDKIRDLLDVSKTNLAVHEDKNRVPYVKGCTERFVSSPEEVMDVIDEGKANRHVAVTNMNEHSSRSHSIFLINIKQENVETEKKLSGKLYLVDLAGSEKVSKTGAEGAVLDEAKNINKSLSALGNVISALAEGTKTHVPYRDSKMTRILQDSLGGNCRTTIVICCSPSVFNEAETKSTLMFGQRAKTIKNTVSVNLELTAEEWKKKYEKEKEKNKTLKNVIQHLEMELNRWRNGEAVPEDEQISAKDQKNLEPCDNTPIIDNIAPVVAGISTEEKEKYDEEISSLYRQLDDKDDEINQQSQLAEKLKQQMLDQDELLASTRRDYEKIQEELTRLQIENEAAKDEVKEVLQALEELAVNYDQKSQEVEDKTRANEQLTDELAQKTTTLTTTQRELSQLQELSNHQKKRATEILNLLLKDLGEIGGIIGTNDVKTLADVNGVIEEEFTMARLYISKMKSEVKSLVNRSKQLESAQMDSNRKMNASERELAACQLLISQHEAKIKSLTDYMQNMEQKRRQLEESQDSLSEELAKLRAQEKMHEVSFQDKEKEHLTRLQDAEEMKKALEQQMESHREAHQKQLSRLRDEIEEKQKIIDEIRDLNQKLQLEQEKLSSDYNKLKIEDQEREMKLEKLLLLNDKREQAREDLKGLEETVSRELQTLHNLRKLFVQDLTTRVKKSVELDNDDGGGSAAQKQKISFLENNLEQLTKVHKQLVRDNADLRCELPKLEKRLRATAERVKALESALKEAKENAMRDRKRYQQEVDRIKEAVRAKNMARRAHSAQIAKPIRPGHYPASSPTAVHAIRGGGGSSSNSTHYQK
stoichiometry N (mass photometry): 2 and 4

B2: KIF5C-Strep-tag II (natural protein)
chain: B1 chain
stoichiometry N (mass photometry): 4 and 2

B3: KIF5C(Δelbow)-mScarlet-Strep-tag II (natural protein)
chain: MADPAECSIKVMCRFRPLNEAEILRGDKFIPKFKGDETVVIGQGKPYVFDRVLPPNTTQEQVYNACAKQIVKDVLEGYNGTIFAYGQTSSGKTHTMEGKLHDPQLMGIIPRIAHDIFDHIYSMDENLEFHIKVSYFEIYLDKIRDLLDVSKTNLAVHEDKNRVPYVKGCTERFVSSPEEVMDVIDEGKANRHVAVTNMNEHSSRSHSIFLINIKQENVETEKKLSGKLYLVDLAGSEKVSKTGAEGAVLDEAKNINKSLSALGNVISALAEGTKTHVPYRDSKMTRILQDSLGGNCRTTIVICCSPSVFNEAETKSTLMFGQRAKTIKNTVSVNLELTAEEWKKKYEKEKEKNKTLKNVIQHLEMELNRWRNGEAVPEDEQISAKDQKNLEPCDNTPIIDNIAPVVAGISTEEKEKYDEEISSLYRQLDDKDDEINQQSQLAEKLKQQMLDQDELLASTRRDYEKIQEELTRLQIENEAAKDEVKEVLQALEELAVNYDQKSQEVEDKTRANEQLTDELAQKTTTLTTTQRELSQLQELSNHQKKRATEILNLLLKDLGEIGGIIGTNDVKTLADVNGVIEEEFTMARLYISKMKSEVKSLVNRSKQLESAQMDSNRKMNASERELAACQLLISQHEAKIKSLTDYMQNMEQKRRQLEESQDSLSEELAKLRAQLQDAEEMKKALEQQMESHREAHQKQLSRLRDEIEEKQKIIDEIRDLNQKLQLEQEKLSSDYNKLKIEDQEREMKLEKLLLLNDKREQAREDLKGLEETVSRELQTLHNLRKLFVQDLTTRVKKSVELDNDDGGGSAAQKQKISFLENNLEQLTKVHKQLVRDNADLRCELPKLEKRLRATAERVKALESALKEAKENAMRDRKRYQQEVDRIKEAVRAKNMARRAHSAQIAKPIRPGHYPASSPTAVHAIRGGGGSSSNSTHYQK
stoichiometry N (mass photometry): 4

B4: KIF5C(Δelbow)-Strep-tag II (natural protein)
chain: B3 chain
percent of particles as dimer (mass photometry): 13% | percent of particles as tetramer (mass photometry): 62% | stoichiometry N (mass photometry): 2 and 4
